Experimental findings from patent US20170145086A1 (VISTERRA, published 2017) are described below.

T1: human FasL (TNFSF6, Adipogen) (human, UniProt P48023 103-281, limits assumed)
T1 sequence (looked up): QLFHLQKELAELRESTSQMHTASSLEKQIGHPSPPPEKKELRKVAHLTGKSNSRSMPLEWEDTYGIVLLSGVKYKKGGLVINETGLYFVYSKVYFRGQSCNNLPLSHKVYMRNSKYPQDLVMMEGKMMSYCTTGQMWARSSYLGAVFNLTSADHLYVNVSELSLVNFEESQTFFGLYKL

T2: human Tweak (TNFSF12; Abcam) (human, UniProt O43508 94-249, limits assumed)
T2 sequence (looked up): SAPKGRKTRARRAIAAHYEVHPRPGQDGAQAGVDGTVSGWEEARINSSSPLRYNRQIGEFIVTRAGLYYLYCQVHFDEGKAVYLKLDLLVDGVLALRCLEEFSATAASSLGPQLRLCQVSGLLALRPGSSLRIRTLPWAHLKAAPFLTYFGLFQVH

T3: human RANKL (TNFSF11; Adipogen) (human, UniProt O14788 152-317, limits assumed)
T3 sequence (looked up): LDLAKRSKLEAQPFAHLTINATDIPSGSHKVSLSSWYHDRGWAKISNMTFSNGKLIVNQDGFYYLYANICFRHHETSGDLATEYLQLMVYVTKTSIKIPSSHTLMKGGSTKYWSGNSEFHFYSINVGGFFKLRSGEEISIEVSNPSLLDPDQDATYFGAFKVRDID

T4: HA-GCN4 hAPRIL (amino acid residues 105-250) (human, UniProt O75888 105-250)
T4 construct: Bought (R&D Systems); also called HA-tagged GCN4 human APRIL; HA-GCN4-huAPRIL; not shown: N-terminal HA tag; GCN4 isoleucine zipper oligomerization domain
T4 sequence: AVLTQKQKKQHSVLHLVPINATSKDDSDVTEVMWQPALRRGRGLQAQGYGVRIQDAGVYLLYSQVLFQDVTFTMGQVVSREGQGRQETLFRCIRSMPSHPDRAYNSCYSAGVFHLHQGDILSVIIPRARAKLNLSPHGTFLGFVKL

B1: monoclonal antibody 2218 (antibody, mouse IgG2, V domains shown)
VH: DVQLQESGPGLVKPSQSLSLTCSVTGYSITSGYYWNWIRQFPGNKLEWMGYISYDGYNNYNPSLKNRISITRDTSKNQFFLKLNSVTTEDTATYYCANYYDYEDWYFGVWGTGTTVTVSS
VL: DIVLTQSPASLAMSLGKRATISCRASESVSIIGTNSIHWYQQKPGQPPKLLIYHASNLETGVPARFSGSGSRTDFTLTIDPVEEDDVAIYYCLQSRKIPYTFGGGTKLEIK
B2: 4237 (antibody, V domains shown)
VH: QAHLKESGPGLVAPSQSLSITCTVSGFSLTDYDVHWVRQSPGKGLEWLGVIWNDGSTDYNTAFISRLTISKDNSKSQVFFKMNSLQADDTAIYYCARNWYGGYWFAYWGQGTLVTVSA
VL: DIQMTQSPASLSASAGETVTITCRSSENIYSYLAWYQQKQGKSPQLLVYNANALAEGVPSRFSGSGSVTQFSLKINSLQPEDFGSYYCQHHYGTPFTFGSGTKLEIK
notes: also called monoclonal antibody 4237
B3: monoclonal antibody 3530 (antibody, mouse IgG2, V domains shown)
VH: QVQLQQSGAELVRPGASVKLSCKASGYTFTDHEMHWVRQTPVHGLEWIGVIDPDTGDTTYNQKFKGKATLTADKSSSTAYMDLRSLTSEDSAVFYCTRWTGGDYWGHGTTLTVSS
VL: DAVMTQTPLSLSVTIGQPASISCKSSQSLLYSDGKTYLNWFQQRPGQSPKRLMYQVSKLDPGIPDRFSGSGSETDFTLKISRVEAEDLGVYYCLQGTYYPYTFGSGTKLEIK

Chain of human BAFF (TNFSF13B, AB Biosciences) (Q9Y275 134-285 limits assumed): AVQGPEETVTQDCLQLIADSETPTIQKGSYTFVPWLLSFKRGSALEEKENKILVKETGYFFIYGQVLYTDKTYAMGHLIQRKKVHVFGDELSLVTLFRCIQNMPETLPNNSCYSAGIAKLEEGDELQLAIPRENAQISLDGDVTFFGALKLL
Chain of mouse BAFF (TNFSF13B, Adipogen) (Q9WU72 127-309 limits assumed): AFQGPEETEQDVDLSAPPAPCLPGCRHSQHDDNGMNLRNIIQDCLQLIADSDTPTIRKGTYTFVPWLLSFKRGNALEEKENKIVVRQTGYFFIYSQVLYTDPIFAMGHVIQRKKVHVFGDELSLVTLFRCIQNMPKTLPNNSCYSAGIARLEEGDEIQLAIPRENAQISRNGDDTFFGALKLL
Chain of human TNFα (TNFSF2; Adipogen) (P01375 85-233 limits assumed): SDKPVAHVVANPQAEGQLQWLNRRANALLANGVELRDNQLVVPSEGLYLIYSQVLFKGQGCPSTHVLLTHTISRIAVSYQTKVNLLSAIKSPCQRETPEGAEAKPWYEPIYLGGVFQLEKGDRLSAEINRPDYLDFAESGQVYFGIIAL

One experiment addresses human BAFF (TNFSF13B, AB Biosciences) (human, UniProt Q9Y275 134-285, limits assumed). As to the kind of experiment: indirect ELISA, cytokine coated. How it is done: (§1) Selected anti-APRIL antibodies were evaluated for potential cross-reactivity with other members of the TNFa superfamily (TNFSF) family of cytokines, including: human TNFα (TNFSF2; Adipogen), human […] (TNFSF4, Adipogen), human FasL (TNFSF6, Adipogen), human TRAIL (TNFSF10, Adipogen), human RANKL (TNFSF11; Adipogen), human Tweak (TNFSF12; Abcam), human and mouse BAFF (TNFSF13B, AB Biosciences and Adipogen, respectively), and human LIGHT (TNFSF14, Adipogen). These cytokines share variable degree of sequence as well as higher order structural homologies. Among them, BAFF appears to be the most closely related to APRIL, with 29% identity and 53% amino acid sequence similarity.
(§2) Binding was evaluated by an indirect ELISA protocol using similar methods described for evaluation of APRIL binding; cytokines were immobilized to ELISA plate at 50 ng per well and then exposed to a solution of each of the test antibodies at a fixed concentration of 10 μg/ml Anti-human or anti-mouse Ig-HRP polyclonal antibody conjugates (Jackson Laboratories) were used for detection of antibody binding. The results presented in FIG. 36 indicated eleven of the twelve antibodies tested in this assay to specifically bind APRIL with no measurable cross-reactivity with the other TNFSF members substantially above assay background.
Turning to B1, the binding result is reported as “no binding (tested: 10 µg/ml (p-1128))”.
For the molecule B2, the binding result is given as “no binding (tested: 10 µg/ml (p-1128))”.
The same measure, in the same setting: then B3, with “no binding (tested: 10 µg/ml (p-1128))”.

A further experiment concerns the target human TNFα (TNFSF2; Adipogen) (human, UniProt P01375 85-233, limits assumed). As to the kind of experiment: indirect ELISA, cytokine coated. Here is the method:
as §1, §2
In general terms: An ELISA detects its analyte on a solid surface through an enzyme-linked reagent.
Regarding B1, the binding result was “no binding (tested: 10 µg/ml (p-1128))”.
Consider B2, for which the binding result was “no binding (tested: 10 µg/ml (p-1128))”.
Same read-out and setting: then B3, with “no binding (tested: 10 µg/ml (p-1128))”.

The target in a further experiment is T1, human FasL (TNFSF6, Adipogen). The experiment can be described thus: indirect ELISA, cytokine coated. Here is the method: as §1, §2
Take B1: the binding result was “no binding (tested: 10 µg/ml (p-1128))”.
Same read-out and setting: in the case of B2 it was “no binding (tested: 10 µg/ml (p-1128))”; in that of B3, “no binding (tested: 10 µg/ml (p-1128))”.

The next experiment has as its target mouse BAFF (TNFSF13B, Adipogen) (mouse, UniProt Q9WU72 127-309, limits assumed). The experiment can be described thus: indirect ELISA, cytokine coated. Here is the method:
as §1, §2
With B1, the binding result is “no binding (tested: 10 µg/ml (p-1128))”.
Take B2: the binding result was “no binding (tested: 10 µg/ml (p-1128))”.
Still for that read-out and setting: in the case of B3 it was “no binding (tested: 10 µg/ml (p-1128))”.

A further experiment deals with T2, human Tweak (TNFSF12; Abcam). As to the kind of experiment: indirect ELISA, cytokine coated. How it is done:
as §1, §2
As for B1, the binding result is “no binding (tested: 10 µg/ml (p-1128))”.
For the molecule B2, the binding result is recorded as “no binding (tested: 10 µg/ml (p-1128))”.
As for B3, the binding result was “no binding (tested: 10 µg/ml (p-1128))”.

The target in another experiment is human TRAIL (TNFSF10, Adipogen) (human, UniProt P50591 95-281, limits assumed). As to the kind of experiment: indirect ELISA, cytokine coated. How it is done: as §1, §2
Chain of human TRAIL (TNFSF10, Adipogen) (P50591 95-281 limits assumed): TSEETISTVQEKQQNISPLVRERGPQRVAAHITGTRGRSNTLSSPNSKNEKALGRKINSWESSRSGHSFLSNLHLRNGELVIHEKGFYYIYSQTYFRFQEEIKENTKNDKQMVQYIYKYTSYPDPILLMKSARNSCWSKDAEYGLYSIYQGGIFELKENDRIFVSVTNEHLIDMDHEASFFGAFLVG
Regarding B1, the binding result is recorded as “no binding (tested: 10 µg/ml (p-1128))”.
B2: the binding result is on record as “no binding (tested: 10 µg/ml (p-1128))”.
The same measure, in the same setting: then B3, with “no binding (tested: 10 µg/ml (p-1128))”.

The target in another experiment is human LIGHT (TNFSF14, Adipogen) (human, UniProt O43557 89-240, limits assumed). As to the kind of experiment: indirect ELISA, cytokine coated. How it is done: as §1, §2
Chain of human LIGHT (TNFSF14, Adipogen) (O43557 89-240 limits assumed): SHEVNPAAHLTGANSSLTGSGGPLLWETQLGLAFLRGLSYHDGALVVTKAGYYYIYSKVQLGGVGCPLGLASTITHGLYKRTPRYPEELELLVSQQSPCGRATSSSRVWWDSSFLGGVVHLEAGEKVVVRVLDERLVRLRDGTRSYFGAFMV
For B1, the binding result is given as “no binding (tested: 10 µg/ml (p-1128))”.
Same read-out and setting: in the case of B2 it was “no binding (tested: 10 µg/ml (p-1128))”; in that of B3, “no binding (tested: 10 µg/ml (p-1128))”.

The next experiment deals with T3, human RANKL (TNFSF11; Adipogen). As to the kind of experiment: indirect ELISA, cytokine coated. How it is done:
as §1, §2
In the case of B1, the binding result is recorded as “no binding (tested: 10 µg/ml (p-1128))”.
On the same count and under the same terms, in the case of B2 it was “no binding (tested: 10 µg/ml (p-1128))”; in that of B3, “no binding (tested: 10 µg/ml (p-1128))”.

Another experiment deals with T4, HA-GCN4 hAPRIL (amino acid residues …). The experiment can be described thus: blocking ELISA, 4-parameter fit; blocked: human APRIL binding to human TACI-Fc. How it is done:
FIGS. 19A-19B depict the antibody inhibition of APRIL binding to TNFSF receptors TACI (FIG. 19A) and BCMA (FIG. 19B). Assay is based on blocking ELISA using recombinant human APRIL (R&D Systems) and Human TACI-Fc. Inhibition was analyzed by non-linear regression using a four parameter fit.
Recombinant TACI-Fc or BCMA-Fc was coated on 96 well plates in 0.1 M carbonate-bicarbonate buffer (pH 9.6), overnight at 4° C. Plates were washed three times with 1×PBST (PBS+0.025% Tween 20) followed by blocking with 1% BSA in 1×PBS, 37° C. for 1 hour. All subsequent wash steps were carried out with 1×PBST. To assess antibody blocking, either 15 ng/mL or 50 ng/mL HA-GCN4-huAPRIL was preincubated with varying antibody concentrations ranging from 0.03-30 μg/mL in binding buffer comprised of 1% BSA and 0.025% Tween-20 in 1×PBS. Preincubation was carried out at 30° C. for 1 hour with mixing. Antibody-APRIL premix with 50 ng/mL APRIL or 15 ng/mL APRIL was then added to TACI-Fc coated or BCMA-Fc coated plates, respectively, and incubated for an additional hour at 30° C. HA-tagged APRIL binding to either receptor was quantified using a goat polyclonal anti-HA tag-HRP antibody (Abcam) added at a 1:10000 dilution followed by colorimetric development using 100 μl/well of freshly prepared TMB substrate (KPL) carried out for up to 30 minutes at room temperature before quenching enzymatic reaction by the addition of 1N sulfuric acid. ELISA signal was quantified by absorbance at 450 nm. ELISA data was analyzed by non-linear regression. IC₅₀ values were calculated based on a 4 parameter fit of antibody titration curves. […] Non-blocking antibodies Aprly-1 or Aprly-5 (Enzo Biosciences) were used as negative controls. Mouse specific, blocking antibody aprily-1-1 (Adipogen) was generally used as a positive control in experiments using mouse APRIL (HA-GCN4-mAPRIL).
As a reminder, the IC50 is the concentration needed to halve the response being measured. A higher IC50 goes with weaker potency. Turning to B1, the IC50 is 980 pM. This lies in the sub-nanomolar range.
Still for that read-out and setting: then B2, with 900 pM.
Turning to B3, the IC50 was 2900 pM.
